Consider twelve molecules from patent US20260250371A1 (ULTRAGENYX PHARMACEUTICAL, published 2026).

Values joined by “and” are separate entries in the source; they are usually repeats but may differ in a detail not shown here. Equal values may be shown once.

Sequences and labels used below:
B1: UGX137 (antibody, human IgG1, kappa, V domains shown)
VH: QVQLVQSGAEVKKPGASVKVSCKASGYTFTNHYMHWVRQAPGQGLEWMGIINPISGSTSNAQKFQGRVTMTRDTSTSTVYMELSSLRSEDTAVYYCARDIVDAFDFWGQGTMVTVSS
VL: AIQLTQSPSSLSASVGDRVTITCRASQGISSALVWYQQKPGKAPKLLIYDASSLESGVPSRFSGSGSGTDFTLTISSLQPEDFATYYCQQFFDYFTFGPGTKVDIKR
notes: also called UGX035; LC:N92F
B2: UGX153 (antibody, human IgG1, kappa, V domains shown)
VH: QVQLVQSGAEVKKPGASVKVSCKASGYTFTRHYMHWVRQAPGQGLEWMGIINPISGSTSNAQKFQGRVTMTRDTSTSTVYMELSSLRSEDTAVYYCARDIVDAFDFWGQGTMVTVSS
VL: AIQLTQSPSSLSASVGDRVTITCRASQGISSALVWYQQKPGKAPKLLIYDASSLESGVPSRFSGSGSGTDFTLTISSLQPEDFATYYCQQFNDYFTFGPGTKVDIKR
notes: also called HC:N31R
B3: UGX159 (antibody, human IgG1, kappa, V domains shown)
VH: QVQLVQSGAEVKKPGASVKVSCKASGYTFTNHYMHWVRQAPGQGLEWMGIINPISGSTENAQKFQGRVTMTRDTSTSTVYMELSSLRSEDTAVYYCARDIVDAFDFWGQGTMVTVSS
VL: AIQLTQSPSSLSASVGDRVTITCRASQGISSALVWYQQKPGKAPKLLIYDASSLESGVPSRFSGSGSGTDFTLTISSLQPEDFATYYCQQFNDYFTFGPGTKVDIKR
notes: also called HC:S59E
B4: UGX152 (antibody, human IgG1, kappa, V domains shown)
VH: QVQLVQSGAEVKKPGASVKVSCKASGYTFTQHYMHWVRQAPGQGLEWMGIINPISGSTSNAQKFQGRVTMTRDTSTSTVYMELSSLRSEDTAVYYCARDIVDAFDFWGQGTMVTVSS
VL: AIQLTQSPSSLSASVGDRVTITCRASQGISSALVWYQQKPGKAPKLLIYDASSLESGVPSRFSGSGSGTDFTLTISSLQPEDFATYYCQQFNDYFTFGPGTKVDIKR
notes: also called HC:N31Q
B5: UGX151 (antibody, human IgG1, kappa, V domains shown)
VH: QVQLVQSGAEVKKPGASVKVSCKASGYTFTFHYMHWVRQAPGQGLEWMGIINPISGSTSNAQKFQGRVTMTRDTSTSTVYMELSSLRSEDTAVYYCARDIVDAFDFWGQGTMVTVSS
VL: AIQLTQSPSSLSASVGDRVTITCRASQGISSALVWYQQKPGKAPKLLIYDASSLESGVPSRFSGSGSGTDFTLTISSLQPEDFATYYCQQFNDYFTFGPGTKVDIKR
notes: also called HC:N31F
B6: UGX162 (antibody, human IgG1, kappa, V domains shown)
VH: QVQLVQSGAEVKKPGASVKVSCKASGYTFTNHYMHWVRQAPGQGLEWMGIINPISGSTLNAQKFQGRVTMTRDTSTSTVYMELSSLRSEDTAVYYCARDIVDAFDFWGQGTMVTVSS
VL: AIQLTQSPSSLSASVGDRVTITCRASQGISSALVWYQQKPGKAPKLLIYDASSLESGVPSRFSGSGSGTDFTLTISSLQPEDFATYYCQQFNDYFTFGPGTKVDIKR
notes: also called HC:S59L
B7: UGX140 (antibody, human IgG1, kappa, V domains shown)
VH: QVQLVQSGAEVKKPGASVKVSCKASGYTFTNHYMHWVRQAPGQGLEWMGIINPISGSTSNAQKFQGRVTMTRDTSTSTVYMELSSLRSEDTAVYYCARDIVDAFDFWGQGTMVTVSS
VL: AIQLTQSPSSLSASVGDRVTITCRASQGISSALVWYQQKPGKAPKLLIYDASSLESGVPSRFSGSGSGTDFTLTISSLQPEDFATYYCQQFNFYFTFGPGTKVDIKR
notes: also called UGX039; LC:D93F
B8: UGX146 (antibody, human IgG1, kappa, V domains shown)
VH: QVQLVQSGAEVKKPGASVKVSCKASGYTFTNHYMHWVRQAPGQGLEWMGIINPISGSTSNAQKFQGRVTMTRDTSTSTVYMELSSLRSEDTAVYYCARDIVDAFDFWGQGTMVTVSS
VL: AIQLTQSPSSLSASVGDRVTITCRASQGISSALVWYQQKPGKAPKLLIYDASSLESGVPSRFSGSGSGTDFTLTISSLQPEDFATYYCQQFNDFFTFGPGTKVDIKR
notes: also called LC:Y94F
B9: UGX160 (antibody, human IgG1, kappa, V domains shown)
VH: QVQLVQSGAEVKKPGASVKVSCKASGYTFTNHYMHWVRQAPGQGLEWMGIINPISGSTFNAQKFQGRVTMTRDTSTSTVYMELSSLRSEDTAVYYCARDIVDAFDFWGQGTMVTVSS
VL: AIQLTQSPSSLSASVGDRVTITCRASQGISSALVWYQQKPGKAPKLLIYDASSLESGVPSRFSGSGSGTDFTLTISSLQPEDFATYYCQQFNDYFTFGPGTKVDIKR
notes: also called UGX066; HC:S59F
B10: UGX161 (antibody, human IgG1, kappa, V domains shown)
VH: QVQLVQSGAEVKKPGASVKVSCKASGYTFTNHYMHWVRQAPGQGLEWMGIINPISGSTINAQKFQGRVTMTRDTSTSTVYMELSSLRSEDTAVYYCARDIVDAFDFWGQGTMVTVSS
VL: AIQLTQSPSSLSASVGDRVTITCRASQGISSALVWYQQKPGKAPKLLIYDASSLESGVPSRFSGSGSGTDFTLTISSLQPEDFATYYCQQFNDYFTFGPGTKVDIKR
notes: also called HC:S59I
B11: UGX164 (antibody, human IgG1, kappa, V domains shown)
VH: QVQLVQSGAEVKKPGASVKVSCKASGYTFTNHYMHWVRQAPGQGLEWMGIINPISGSTTNAQKFQGRVTMTRDTSTSTVYMELSSLRSEDTAVYYCARDIVDAFDFWGQGTMVTVSS
VL: AIQLTQSPSSLSASVGDRVTITCRASQGISSALVWYQQKPGKAPKLLIYDASSLESGVPSRFSGSGSGTDFTLTISSLQPEDFATYYCQQFNDYFTFGPGTKVDIKR
notes: also called HC:S59T
B12: UGX148 (antibody, human IgG1, kappa, V domains shown)
VH: QVQLVQSGAEVKKPGASVKVSCKASGYTFFNHYMHWVRQAPGQGLEWMGIINPISGSTSNAQKFQGRVTMTRDTSTSTVYMELSSLRSEDTAVYYCARDIVDAFDFWGQGTMVTVSS
VL: AIQLTQSPSSLSASVGDRVTITCRASQGISSALVWYQQKPGKAPKLLIYDASSLESGVPSRFSGSGSGTDFTLTISSLQPEDFATYYCQQFNDYFTFGPGTKVDIKR
notes: also called HC:T30F

In this test the target is T1, recombinant human FGF23 (R179Q) (human, UniProt Q9GZV9 25-251).
T1 construct: also called rhFGF23(R179Q); hFGF23(R179Q)
T1 sequence (looked up): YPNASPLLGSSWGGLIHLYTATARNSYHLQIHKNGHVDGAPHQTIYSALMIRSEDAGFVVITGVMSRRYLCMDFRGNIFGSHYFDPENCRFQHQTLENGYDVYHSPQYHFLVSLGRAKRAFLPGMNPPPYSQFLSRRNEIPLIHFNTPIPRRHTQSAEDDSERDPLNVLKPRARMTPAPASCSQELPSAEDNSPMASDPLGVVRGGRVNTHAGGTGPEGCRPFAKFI
Kind of test: SPR, antibody captured on hIgG chip, rhFGF23(R179Q) analyte.
The Kd is the free concentration of one partner at which half of the binding sites on the other are occupied at equilibrium, for simple one-to-one binding. A word on the koff: it is the first-order rate constant of dissociation. As a reminder, the kon is a measure of how fast the partners come together. Turning to B1, the Kd is 0.0319 nM, the “Ratio (variant antibody KD/burosumab KD)” value was found to be 1, the “SA (surface activity)” value amounted to 86.5% and the koff was determined as 0.000161 s⁻¹. The kon was found to be 5.04e+06 M⁻¹ s⁻¹.
Taken in the same sequence, the figures for B2 were 0.112 nM, 0, 83.7%, 0.000322 s⁻¹ and 2.87e+06 M⁻¹ s⁻¹.
B3: the Kd was 0.0226 nM and 0.0251 nM; the “Ratio (variant antibody KD/burosumab KD)” value was 1; the koff is 0.000224 s⁻¹ and 0.000222 s⁻¹; the kon is 9.91e+06 M⁻¹ s⁻¹ and 8.83e+06 M⁻¹ s⁻¹.
For the molecule B4, the Kd came out at 0.0416 nM, the “Ratio (variant antibody KD/burosumab KD)” value amounted to 0, the “SA (surface activity)” value turned out to be 91.2% and the koff is 0.000262 s⁻¹. Also, the kon was found to be 6.29e+06 M⁻¹ s⁻¹.
On the same counts, the results for B5 are 0.0255 nM, 1, 90.3%, 0.000212 s⁻¹ and 8.32e+06 M⁻¹ s⁻¹.
Taken in the same sequence, the figures for B6 were 0.0986 nM, 0, 88.4%, 0.000472 s⁻¹ and 4.79e+06 M⁻¹ s⁻¹.
With B7, the kon was 2.63e+06 M⁻¹ s⁻¹ and 2.27e+06 M⁻¹ s⁻¹.
For the molecule B8, the Kd was 0.0332 nM, the “Ratio (variant antibody KD/burosumab KD)” value was determined as 1, the “SA (surface activity)” value is 89.9% and the koff was found to be 0.00017 s⁻¹. Moreover, the kon came out at 5.14e+06 M⁻¹ s⁻¹.
Regarding B9, the Kd was 0.0142 nM and 0.0147 nM and 0.0146 nM; the “Ratio (variant antibody KD/burosumab KD)” value came out at 1; the koff is 8.7e-05 s⁻¹ and 9.61e-05 s⁻¹ and 9.01e-05 s⁻¹; the kon is 6.2e+06 M⁻¹ s⁻¹ (2×) and 6.5e+06 M⁻¹ s⁻¹.
As for B10, the Kd is 0.061 nM, the “Ratio (variant antibody KD/burosumab KD)” value was determined as 0, the “SA (surface activity)” value was determined as 84.2% and the koff was determined as 0.000267 s⁻¹. Also, the kon was 4.38e+06 M⁻¹ s⁻¹.
As for B11, the Kd was 0.0336 nM, the “Ratio (variant antibody KD/burosumab KD)” value came to 1, the “SA (surface activity)” value is 91.9% and the koff was 0.00019 s⁻¹. The kon is 5.64e+06 M⁻¹ s⁻¹.
On the same counts, the results for B12 are 0.0272 nM, 1, 91.2%, 0.000181 s⁻¹ and 6.65e+06 M⁻¹ s⁻¹.
